Substrate in series [1]: OC[C@H]1O[C@H](O[C@H]2[C@H](O)[C@H](O)[C@@H](O)O[C@@H]2CO)[C@@H](O)[C@@H](O)[C@@H]1O
The experiment in a line: mannobiose hydrolysis kinetics. It counts as biochemical, Bacteroides thetaiotaomicron. The following applies: other: most active mannobiose substrate.

Substrate in series [2]: O=[N+]([O-])c1ccc(O[C@H]2O[C@H](CO)[C@@H](O)[C@H](O)[C@@H]2O)cc1
The experiment in a line: 4NP-Man hydrolysis kinetics. It counts as biochemical, Bacteroides thetaiotaomicron. To be noted: other: substrate 4NP-Man.

Substrate in series [3]: OC[C@H]1O[C@H](O[C@@H]2[C@H](O)[C@@H](O)O[C@H](CO)[C@H]2O)[C@@H](O)[C@@H](O)[C@@H]1O
Nature of the series: purified protein, by the assay type. To be noted: other: most active mannobiose substrate, pH 7.0, 37.0 °C.

B1: Bt3530 (Bacteroides thetaiotaomicron VPI-5482) (protein)
chain: MTPSVAQNTKYVNLFIGTSGDNGQVAPGAAAPFGMVCVCPDNDPRSHAGYDYAVTKVSGISVNRLSGVGCSGGGGNLRIRPVAPSQELHIKKSREKATPGYYSTAFTNGIKTELTATNAMAVERYKFPRSLSAALWIDFASTFEDVATCHYKRISETCIEGYVQAKNVCGHGCYKLYFSLNTSQPFQLEEQKETTACLTFGKKVRSVEVRIGLSALSSELASWECARWEKMDFEDVKSRTADQWEKQLSAIDVKGGKKDDRVIFYTSLYRTYLSPADVSSPDGAYLGTDGKVYISEDFRYYSNWSLWDTFRTKFPLLVLTEPAKMRDMATSLIHLYATGKKDWSTGFESTPTVRTEHAVILLLDAYRKGITNLDFRKGYAGMKQEMERLPMRSPDQKMESAYDLWAMAKIAEIIGEKADSEQYRQRSVSLFEETWKKEFMNVTPAFEVMKNNGLYQGTRWQYRWAAPQYIDKMIEWVGQDSLRLQLTYFFDHHLYNQGNEPDIHVPYLFNRLGAPEKTQQIVRSLMTEPMIHKYGGNSEFKTPYLGKAFKNAPEGYSPEMDEDDGTMSAWYVFGAMGFYPLLVGDEYYDLTSPLFDRVLLRLTNGNVLTIQTEGRKKKDAPIKSIHFNGKKIADYRISHNELIKGGELIYNYK
For B1, in series [1] (enzyme Bt3530, pH 7.0), the kcat (as a rule, the number of substrate molecules converted per active site and unit of time at saturation) was found to be 0.001 ± 8.33e-05 s⁻¹; the kcat/Km (commonly the turnover number divided by the Michaelis constant) worked out at 1.58 M⁻¹ s⁻¹.

B2: Bt4073 (Bacteroides thetaiotaomicron VPI-5482) (protein)
chain: GVVTEDLIPTDYVNPFIGASTSVGAAGVYHGLGKTFPGATTPYGMVQVSPNTITGGDNSSGYSDEHKTIEGFAFTQMSGVGWFGDLGNFLVMPTTGELQKIAGKEDGSIKGYRSSYDKATETAKAGYYSVELTDYKIKVESSATPHCGILQFTFPSNEQSRIQIDLARRVGGTSTSQYVKVLDDYTIQGWMKCTPDGGGWGNGEGNSDYTVYYYAQFSKPLSNYGFWSADIPDEWVRKRDEVVSIPYLTRISQAPVIKDKKELEGKHLGFFTEFPTKEGEQVEMKVGISFVDMEGAANNFKQEIASKNFAQVKQEASDLWNKELSRIRISGGTDDEKTVFYTSLYHTMIDPRIYTDVDGRYIGGDKKVHEQDGTFTKRTIFSGWDVFRSQFPLQAMINPRLVSDALNSLITMADQSRREYYERWELLNSYSGCMIGNPALSVLADAYMKGIRTYDVEKAYQYAVNTSAKFGNDSLGYTPEPLSISYTLEYAYADWCVAQLAKALGKEEDAKRFYEKGQAYRNMFDAEKGWFRPRNADGSWKAWPENALTEEWYGCIESNAYQQGWFVPHDVPGMVELMGGKEEVIANLTNLFDHTPSDMLWNDYYNHANEPVHFVPFLFNQLDVPWYTQKWTRYICKNAYANKVEGIVGNEDVGQMSAWYILAASGIHPSCPGNTRMEITSPVFDKVEFNLDSKYHQGKVFTIIAHNNNTNNLYIQKALLNGKEYNKCYLDFAEIAAGGTLELFMGDKPNTEWGVLSNI
In the case of B2, in series [2] (enzyme Bt4073, pH 7.0), the Michaelis-Menten constant (Km) (as a rule, the concentration of substrate that gives half-maximal velocity) stood at 1800 ± 210 µM; the kcat is 0.0045 ± 0.000233 s⁻¹; the catalytic efficiency (kcat/Km) was 2.33 M⁻¹ s⁻¹. Besides, in series [1] (enzyme Bt4073, pH 7.0), the Km is 270 ± 49 µM, the catalytic constant (kcat) was found to be 183 ± 9.33 s⁻¹ and the kcat/Km was determined as 683000 M⁻¹ s⁻¹.

B3: Bt3858 (Bacteroides thetaiotaomicron VPI-5482) (protein)
chain: HTDQTPTKDFVDYVNPYIGNISHLLVPTYPTVHLPNSMLRVYPERGDYTSDRVNGLPVVVTSHRGSSAFNLSPVQGEVSRPIVSYSYDLENITPYSYSVYLDEADIQVEYAPSHQAGIYHISFGTEGDNALVVNTKNGKLVAEEKGVSGYQVIDNTPTKIYLYLETSQLPLRKGVLADGKVDMESKEGSAIALYYGSEKNLNLRYGISFISAEQAKKNLQRDITTYDVKAVADAGRRIWNKTLGKIVIEGGSEDEKEIFYTSLYRTYERMINLSEDGKYYSAFDGKIHEDGGVPFYTDDWIWDTYRATHPLRILIEPQKELDMIRSYIRMAEQSDRRWMPTFPEVTGDSHRMNGNHAVAVIWDAYCKGLKDFDLEAAYEACKGAITEKTLLPWLRCPLTELDKFYQEKGFFPALNPGEEETCKAVHSFERRQAVAVMLGNCYDNWCLAQIARTLNKTDDYKKFMRMSYTYRNVYNAETGFFHPKNKDGKFIEPFDYRYSGGQGARGYYGENNGWIYRWDVQHNPADLIALMGGQASFIERLNQTFNEPLGRSKFDFYHQLPDHTGNVGQFSMANEPCLHIPYLYNYAGQPWMTQKRIRVLLNQWFRNDLMGVPGDEDGGGMTAFVVFSMMGFYPVTPGSPTYNIGSPVFQSAKMEVGDGHYFEIIAENYAPDHKYIQSATLNGTPWNKPWFSHADIQNGGRLVLQMGDKPNKKWGIASDAVPPSSESLPE
Turning to B3, in series [2] (enzyme Bt3858, pH 7.0), the Michaelis constant (Km) was found to be 270 ± 65 µM, the kcat worked out at 0.000417 ± 1.67e-05 s⁻¹ and the specificity constant (kcat/Km) turned out to be 1.57 M⁻¹ s⁻¹. Also, in series [3] (enzyme Bt3858), the Km came to 1400 ± 170 µM, the kcat came to 40 s⁻¹ and the kcat/Km worked out at 28300 M⁻¹ s⁻¹.

B4: Bt1769 (Bacteroides thetaiotaomicron VPI-5482) (protein)
chain: CNGSLQTADRTPVDYVNPYIGNISHLLVPTFPTIQLPNSMLRVYPERADYTSELLKGLPLIVTNHRERSAFNFSPYQGEKLRPVITYNYDNEHITPYSFDVELDDNRMKAEYALSHQSAIYRITYEADKPAYLIVNSRNGSIHANENFISGRQQLNDNTNVYVYIEAQEKPISAGILENGTIETSKDNAEGANACAAWRFADGTTTVNLRYGISFISEEQAEKNLHRELKDYNIKALAEAGRQIWNETLGRIQVEGGTEDDKTVFYSSFYRTFERPICMSEGGRYFSAFDGKVHEDNGTPFYTDDWIWDTYRAAHPLRTLIDQQKEEDIIASYLRMAEQMGNMWMPTFPEVTGDTRRMNSNHAVATVADALAKGLKVDTAKAYEACRKGIEEKTLAPWSGAPAGWLDNFYRENGYIPALRVDEPENDPNVHPFEKRQPVAVTLGTSYDQWCLSRIAQALNKKEEAEYYLKCSYNYRNLYNKETAFFHPKDKEGQWIEPFDYRFPGGMGAREYYGENNGWVYRWDVPHNVADLISLMGGNEQFIANLDRTFTEPLGRSKYAFYAKLPDHTGNVGQFSMANEPSLHVPYLYNYAGQPWKTQKRIRQMLKTWFRNDLMGIPGDEDGGGMTSFVVFSSLGFYPVTPGLPAYTIGSPLFTDAKIRLSNGAVFEIEAKNASTDNKYIQSATLNGKEWNKSWFSHDDLMSGGKLVLVMGNKPNKTWASGAEDVPPSLEIK
Turning to B4, in series [3] (enzyme Bt1769), the Km was 1300 ± 140 µM, the kcat came to 63.3 s⁻¹ and the catalytic efficiency (kcat/Km) came out at 48300 M⁻¹ s⁻¹.

B5: Bt3965 (Bacteroides thetaiotaomicron VPI-5482) (protein)
chain: MAQTEKLTDYVNPFVGTDGYGNVYPGAQIPFGGIQISPDTDSRFYDAASGYKYNHLTLMGFSLTHLSGTGIPDLGDFLFIPGTGEMKLEPGTHEDPDQGYRSRYSHDKEWASPNYYAVELADYGVKAEMTSGVRSGMFRFTYPESDNAFIMIDMNHTLWQSCEWSNLRMINDSTITGYKLVKGWGPERHVYFTATFSKKLTGLRFVQDKKPVIYNTSRFRSSYEAWGKNLMACISFDTKAGEEVTVKTAISAVSTDGARNNMKELDGLTFNELRAKGEALWEKELGKYTLTADRKTKETFYTSAYHAALHPFIFQDSDGQFRGLDKNIEKAEGFTNYTVFSLWDTYRALHPWFNLVQQEVNADIANSMLAHYDKSVEKMLPIWSFYGNETWCMIGYHAVSVLADMIVKEVKGFDYERAYEAMKTTAMNSNYDCLPEYREMGYVPFDKEAESVSKTLEYAYDDYCIAQAAKKLGKEDDYHYFLNRALSYQTLIDPETKYMRGRDSKGDWRTPFTPVAYQGPGSVHGWGDITEGFTMQYTWYVPQDVQGYINEAGKELFRKRLDELFTVELPDDIPGAHDIQGRIGAYWHGNEPCHHVAYLYNYLKEPWKCQKWIRTIVDRFYGNTPDALSGNDDCGQMSAWYMFNCIGFYPVAPSSNIYNIGSPCAEAITVRMSNGKNIEMTADNWSPKNLYVKELYVNGKKYDKSYLTYDDIRDGVKLRFVMSGKPNYKRAVSDEAVPPSISLPEKTMKYKSSIGF
On to B5, for which the catalytic constant (kcat) in series [2] (enzyme Bt3965, pH 7.0) was 0.233 ± 0.00667 s⁻¹; in series [1] (enzyme Bt3965, pH 7.0), 1.48 ± 0.113 s⁻¹. The specificity constant (kcat/Km) in series [2] (enzyme Bt3965, pH 7.0) came to 233 M⁻¹ s⁻¹; in series [1] (enzyme Bt3965, pH 7.0) it was 183 M⁻¹ s⁻¹.

B6: Bt1878 (Bacteroides thetaiotaomicron VPI-5482) (protein)
chain: ETKDYTQYVNTFIGAADNGHTFPGACYPFGMIQTSPVTGAVGWRYCSEYTYQDSLIWGFTQTHLNGTGCMDLGDILVMPVTGTRARAWDAYRSHFPKDKEAATPGYYTVELSDPQVKAELTASIHAALHRYTYHKADSASLLIDLQHGPAWREEQYHSQVNSCEVNWEDAQTLAGHVNNTVWVDQDYFFVMKFNRPVIDSLYLPMGETEKGKRIIATFDLKPGDELMMKVALSTTSVEGAKKNLQAEIPDWNFDGVKLAAHDEWNSYLSRMDVEGTDDEKTNFYTCFYHALIQPNQISDVDGMYRNAADSIVKAGTGTFYSTFSLWDTYRAAHPFYTLMVPERVDDFVNSLIEQGEVQGFLPIWALWGKENFCMIGNHGVSVIAEAYRKGFRGFDAERAFNMVKKTQTVSHPLKSDWEVYTKYGYFPTDLTKAESVSSTLESVYDDYAAADMARRMGKEEDAAYFAKRADYYKNLFDSQTNFMRPRKADGTWKSPFNPSDVGHAESTGGDYTEGNAWQYTWHVQHDVPGLIALFGGEEPFLNKLDSLFTVKLETTQADVTGLIGQYAHGNEPSHHVTYLYALAGRPERTQELIREIFDTQYKNKPDGLCGNDDCGQMSAWYMFSAMGFYPVDPVSGDYVFGAPQLPKIVLHLADGKTFTVIAENLSKEHKYVDSITLNGEPYTKNTISHEDILKGGTLVYKMK
For B6, in series [2] (enzyme Bt1878, pH 7.0), the Michaelis-Menten constant (Km) was determined as 900 ± 130 µM, the catalytic constant (kcat) worked out at 0.00133 ± 8.33e-05 s⁻¹ and the kcat/Km worked out at 1.48 M⁻¹ s⁻¹. Further, in series [3] (enzyme Bt1878), the Km was 2000 ± 380 µM, the kcat was determined as 0.283 s⁻¹ and the specificity constant (kcat/Km) was found to be 140 M⁻¹ s⁻¹.

The values above are taken from PMC3942423 (Nature chemical biology, 2009).
